B1: Matuzumab (antibody, V domains shown)
VH: QVQLVQSGAEVKKPGASVKVSCKASGYTFTSHWMHWVRQAPGQGLEWIGEFNPSNGRTNYNEKFKSKATMTVDTSTNTAYMELSSLRSEDTAVYYCASRDYDYAGRYFDYWGQGTLVTVSS
VL: DIQMTQSPSSLSASVGDRVTITCSASSSVTYMYWYQQKPGKAPKLLIYDTSNLASGVPSRFSGSGSGTDYTFTISSLQPEDIATYYCQQWSSHIFTFGQGTKVEIK
notes: Parental monoclonal antibody used as positive control; also called EMD72000; parental antibody (anti-EGFR)
B2: BMX003-010 (humanized Patri-Cetu-Fc) (bispecific antibody, human IgG1, kappa)
heavy: not shown
light 1: not shown
light 2: EIVLTQSPDFQSVTPKEKVTITCRASQSIGTNIHWYQQKPDQSPKLLIKYASESISGVPSRFSGSGSGTDFTLTINSLEAEDAATYYCQQNNNWPTTFGAGTKLEIKRTVAAPSVFIFPPSDEQLKSGTASVTCLLNNFYPREAKVQWKVDNALQSGNSQESVTEQDSKDSTYSLVSTLTLSKADYEKHKVYACEVTHQGLSSPVTKSFNRGEC
B3: BMX003-011 (humanized Patri-Cetu-Fc modified) (bispecific antibody, human IgG1, kappa)
heavy: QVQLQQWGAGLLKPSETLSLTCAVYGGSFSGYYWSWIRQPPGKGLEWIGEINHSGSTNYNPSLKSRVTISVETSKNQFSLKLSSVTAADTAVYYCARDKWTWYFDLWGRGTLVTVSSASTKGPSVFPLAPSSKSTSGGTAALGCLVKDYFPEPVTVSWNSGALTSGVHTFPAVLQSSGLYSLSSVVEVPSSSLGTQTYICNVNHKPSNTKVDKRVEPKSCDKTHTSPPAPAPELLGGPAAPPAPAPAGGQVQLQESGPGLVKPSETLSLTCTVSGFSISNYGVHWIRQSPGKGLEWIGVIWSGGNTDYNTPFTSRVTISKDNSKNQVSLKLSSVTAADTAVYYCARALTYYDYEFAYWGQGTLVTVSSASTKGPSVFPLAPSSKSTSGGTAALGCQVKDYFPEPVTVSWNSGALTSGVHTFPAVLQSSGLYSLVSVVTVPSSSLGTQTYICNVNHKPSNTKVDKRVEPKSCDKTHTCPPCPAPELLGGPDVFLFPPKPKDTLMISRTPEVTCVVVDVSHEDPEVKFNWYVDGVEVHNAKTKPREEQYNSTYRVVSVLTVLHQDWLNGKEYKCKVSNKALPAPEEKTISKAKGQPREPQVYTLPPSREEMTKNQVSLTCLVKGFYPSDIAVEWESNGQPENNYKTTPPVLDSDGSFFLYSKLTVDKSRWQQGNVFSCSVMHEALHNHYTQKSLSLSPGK
light 1: not shown
light 2: EIVLTQSPDFQSVTPKEKVTITCRASQSIGTNIHWYQQKPDQSPKLLIKYASESISGVPSRFSGSGSGTDFTLTINSLEAEDAATYYCQQNNNWPTTFGAGTKLEIKRTVAAPSVFIFPPSDEQLKSGTASVTCLLNNFYPREAKVQWKVDNALQSGNSQESVTEQDSKDSTYSLVSTLTLSKADYEKHKVYACEVTHQGLSSPVTKSFNRGEC
notes: Identical to BMX003-010 except for 2 mutations in the Fc domain (S239D and I332E, printed '1332E')
B4: Patri-Matu-Fc (bispecific antibody, human IgG1, kappa)
heavy: not shown
light 1: not shown
light 2: DIQMTQSPSSLSASVGDRVTITCSASSSVTYMYWYQQKPGKAPKLLIYDTSNLASGVPSRFSGSGSGTDYTFTISSLQPEDIATYYCQQWSSHIFTFGQGTKVEIKRTVAAPSVFIFPPSDEQLKSGTASVTCLLNNFYPREAKVQWKVDNALQSGNSQESVTEQDSKDSTYSLVSTLTLSKADYEKHKVYACEVTHQGLSSPVTKSFNRGEC
notes: Tetravalent tandem Fab-Fc: external Fabs patritumab (anti-HER3), internal Fabs matuzumab (anti-EGFR); 2 heavy chains and 4 light chains; also called 3Patri-1Matu-Fc

Tests used:
EGFR His tag = target: T1, EGFR His tag (UniProt P00533 25-645); test: direct ELISA, His-tagged antigen coated, anti-human Fc-HRP detection
T1 construct: Recombinant His-tagged antigen; not shown: His tag

[1] = target: T2, HER3 protein expressed on the cell surface of SW-1990 cells (UniProt P21860 20-1342, limits assumed); test: flow cytometry on SW-1990 cells (FIG. 10)
T2 construct: whole, on cells; SW-1990 cells carry HER3 and EGFR together; the flow cytometry signal is not split between them

[2] = target: T3, EGFR protein expressed on the cell surface of SW-1990 cells (UniProt P00533 25-1210, limits assumed); test: flow cytometry on SW-1990 cells (FIG. 10)
T3 construct: whole, on cells; SW-1990 cells carry HER3 and EGFR together; the flow cytometry signal is not split between them

HER3 His tag = target: T4, HER3 His tag (UniProt P21860 20-643); test: direct ELISA, His-tagged antigen coated, anti-human Fc-HRP detection
T4 construct: Recombinant His-tagged antigen; not shown: His tag

EC50 (EGFR His tag) | binding result [1] | binding result [2] | EC50 (HER3 His tag) | Binder
0.09 nM | – | – | – | B1
– | binds | binds | – | B2
– | binds | binds | – | B3
0.39 nM | – | – | 0.16 nM | B4
